Laboratory results as given in patent US20070071744A1 (published 2007).
Ends that are not written are not given here.

Tests used:
Experiment in all cases: PepSpot peptide array
peptide 107 = biological target: T1, peptide 107 (human)
T1 peptide: Ac-PTEPPSSVAEFSE
Experimental: (§1) The peptides were synthesized on a cellulose membrane in a stepwise manner resulting in a defined arrangement (peptide array) and are covalently bound to the cellulose membrane. Binding assays were performed directly on the peptide array. In general an antigen peptide array is incubated with blocking buffer for several hours to reduce non-specific binding of proteins or antibodies. It follows the incubation with a primary (antigen peptide-binding) antibody in blocking buffer and an incubation with a horseradish peroxidase (HRP)-labelled secondary antibody, which binds selectively the primary antibody. Alternatively a HRP-labelled primary antibody in blocking buffer can be used.
(§2) A short T(Tween)-TBS-buffer washing directly after the incubation of the antigen peptide array with the secondary protein or antibody or the HRP-labelled primary antibody followed by the first chemiluminescence experiment is made to get an first overview which antigen peptides do bind the primary antibody. Several buffer washing steps follow (T-TBS- and TBS-buffer) to reduce false positive binding (unspecific antibody binding to the cellulose membrane itself). After these washing steps the final chemiluminescence analysis is performed. The data were analysed with an imaging system showing the signal intensity (Light units, LU) as single measurements for each peptide. In order to evaluate non-specific binding of secondary antibodies, incubations using the secondary antibody have to be performed in the absence of the primary antibody as control incubation.

peptide 15 = biological target: T2, peptide 15 (human)
T2 construct: also called SLQALPSSLVPLE
T2 peptide: Ac-SLQALPSSLVPLE
Experimental: as §1, §2

peptide 24 = biological target: T3, peptide 24 (human)
T3 peptide: Ac-RCQGPPGVDLYRL
Experimental: as §1, §2

peptide 53 = biological target: T4, peptide 53 (human)
T4 peptide: Ac-LVATGVFAKPSLS
Experimental: as §1, §2

peptide 55 = biological target: T5, peptide 55 (human)
T5 peptide: Ac-GVFAKPSLSAQPG
Experimental: as §1, §2

peptide 80 = biological target: T6, peptide 80 (human)
T6 peptide: Ac-RWYRASFPIITVT
Experimental: as §1, §2

peptide 116 = biological target: T7, peptide 116 (human)
T7 peptide: Ac-TVSFTNKVFTTET
Experimental: as §1, §2

peptide 20 = biological target: T8, peptide 20 (human)
T8 peptide: Ac-PLEKPVTLRCQGP
Experimental: as §1, §2

peptide 97 = biological target: T9, peptide 97 (human)
T9 peptide: Ac-APSDPLELVVTGT
Experimental: as §1, §2

peptide 35 = biological target: T10, peptide 35 (human)
T10 peptide: Ac-DQAVLFIPAMKRS
Experimental: as §1, §2

peptide 33 = biological target: T11, peptide 33 (human)
T11 peptide: Ac-SRYQDQAVLFIPA
Experimental: as §1, §2

peptide 11 = biological target: T12, peptide 11 (human)
T12 construct: also called QSGPLPKPSLQAL
T12 peptide: Ac-QSGPLPKPSLQAL
Experimental: as §1, §2

peptide 100 = biological target: T13, peptide 100 (human)
T13 peptide: Ac-ELVVTGTSVTPSR
Experimental: as §1, §2

peptide 46 = biological target: T14, peptide 46 (human)
T14 peptide: Ac-QNGSLWSLPSDQL
Experimental: as §1, §2

peptide 108 = biological target: T15, peptide 108 (human)
T15 peptide: Ac-EPPSSVAEFSEAT
Experimental: as §1, §2

peptide 13 = biological target: T16, peptide 13 (human)
T16 peptide: Ac-LPKPSLQALPSSL
Experimental: as §1, §2

peptide 3 = biological target: T17, peptide 3 (human, cysteine pairing not given here)
T17 peptide: Ac-PTALFCLGLCLGR
Experimental: as §1, §2

peptide 18 = biological target: T18, peptide 18 (human)
T18 peptide: Ac-SSLVPLEKPVTLR
Experimental: as §1, §2

peptide 19 = biological target: T19, peptide 19 (human)
T19 peptide: Ac-LVPLEKPVTLRCQ
Experimental: as §1, §2

peptide 16 = biological target: T20, peptide 16 (human)
T20 peptide: Ac-QALPSSLVPLEKP
Experimental: as §1, §2

peptide 38 = biological target: T21, peptide 38 (human)
T21 peptide: Ac-IPAMKRSLAGRYR
Experimental: as §1, §2

peptide 60 = biological target: T22, peptide 60 (human)
T22 peptide: Ac-QPGPAVSSGGDVT
Experimental: as §1, §2

peptide 112 = biological target: T23, peptide 112 (human)
T23 peptide: Ac-FSEATAELTVSFT
Experimental: as §1, §2

peptide 127 = biological target: T24, peptide 127 (human)
T24 peptide: Ac-ESDSPAGPARQYY
Experimental: as §1, §2

peptide 28 = biological target: T25, peptide 28 (human)
T25 peptide: Ac-DLYRLEKLSSSRY
Experimental: as §1, §2

peptide 42 = biological target: T26, peptide 42 (human)
T26 peptide: Ac-AGRYRCSYQNGSL
Experimental: as §1, §2

peptide 37 = biological target: T27, peptide 37 (human)
T27 peptide: Ac-LFIPAMKRSLAGR
Experimental: as §1, §2

peptide 30 = biological target: T28, peptide 30 (human)
T28 peptide: Ac-LEKLSSSRYQDQA
Experimental: as §1, §2

peptide 82 = biological target: T29, peptide 82 (human)
T29 peptide: Ac-ASFPIITVTAAHS
Experimental: as §1, §2

peptide 54 = biological target: T30, peptide 54 (human)
T30 peptide: Ac-ATGVFAKPSLSAQ
Experimental: as §1, §2

peptide 67 = biological target: T31, peptide 67 (human)
T31 construct: also called QCQTRYGFDQFAL
T31 peptide: Ac-QCQTRYGFDQFAL
Experimental: as §1, §2

peptide 91 = biological target: T32, peptide 91 (human)
T32 peptide: Ac-YSFSSRDPYLWSA
Experimental: as §1, §2

peptide 77 = biological target: T33, peptide 77 (human)
T33 peptide: Ac-PYKNPERWYRASF
Experimental: as §1, §2

peptide 129 = biological target: T34, peptide 129 (human)
T34 peptide: Ac-PAGPARQYYTKGN
Experimental: as §1, §2

peptide 104 = biological target: T35, peptide 104 (human)
T35 peptide: Ac-VTPSRLPTEPPSS
Experimental: as §1, §2

peptide 12 = biological target: T36, peptide 12 (human)
T36 peptide: Ac-GPLPKPSLQALPS
Experimental: as §1, §2

peptide 32 = biological target: T37, peptide 32 (human)
T37 peptide: Ac-SSSRYQDQAVLFI
Experimental: as §1, §2

peptide 125 = biological target: T38, peptide 125 (human)
T38 peptide: Ac-TSPKESDSPAGPA
Experimental: as §1, §2

peptide 41 = biological target: T39, peptide 41 (human)
T39 peptide: Ac-SLAGRYRCSYQNG
Experimental: as §1, §2

peptide 9 = biological target: T40, peptide 9 (human)
T40 peptide: Ac-RVPAQSGPLPKPS
Experimental: as §1, §2

B1: monoclonal antibody hGP 5C4 (antibody, V domains shown)
VH: EVKLQESGGGLVQPGRSLKLSCTASGFTFSDYFMSWVRQAPTRGLEWVASISSGGASAYWRDSVKGRFTISRDNAKSALYLQMDSLRSEDTATYFCARGELDFDYWGQGVMVAVSS
VL: ADPNSTLLSASVGDRVTLNCTASQNVYKNLAWYQQKLGEAPRLLLYSANSQTGIPSRFSGSGSGPDFTLTISSLQPEDVASYFCQQYYSGNTFGAGTKLELKR
notes: Rat hybridoma antibody (Lou/C rats), heavy chain gamma 2a, light chain kappa; also called ab 5C4; anti-GPVI mAb 5C4
Q: For B1, which “LU (Light Units)” value (peptide 107) is on record?
A: Its value is 71 LU.

Q: What about the “LU (Light Units)” value (peptide 15) of the same binder?
A: The value was 74 LU.

Q: What about the “LU (Light Units)” value (peptide 24) of the same binder?
A: Its value is 28 LU.

Q: What about the “LU (Light Units)” value (peptide 53) of the same binder?
A: Its value is 359 LU.

Q: And the “LU (Light Units)” value (peptide 55)?
A: Its value is 810 LU.

Q: What about the “LU (Light Units)” value (peptide 80) of the same binder?
A: Its value is 184 LU.

Q: And the “LU (Light Units)” value (peptide 116)?
A: Its value is 224 LU.

Q: And the “LU (Light Units)” value (peptide 20)?
A: Its value is 175 LU.

Q: What about the “LU (Light Units)” value (peptide 97) of the same binder?
A: The value was 147 LU.

Q: What about the “LU (Light Units)” value (peptide 35) of the same binder?
A: The value was 186 LU.

Q: And the “LU (Light Units)” value (peptide 33)?
A: The value was 259 LU.

Q: What about the “LU (Light Units)” value (peptide 11) of the same binder?
A: Its value is 3540 LU.

Q: And the “signal to noise ratio” value (peptide 11)?
A: Its value is roughly 20 ratio.

Q: What about the “LU (Light Units)” value (peptide 100) of the same binder?
A: Its value is 114 LU.

Q: And the “LU (Light Units)” value (peptide 46)?
A: The value was 1 LU.

Q: And the “LU (Light Units)” value (peptide 108)?
A: The value was 12 LU.

Q: What about the “LU (Light Units)” value (peptide 13) of the same binder?
A: The value was 2050 LU.

Q: What about the “LU (Light Units)” value (peptide 3) of the same binder?
A: The value was 74 LU.

Q: And the “LU (Light Units)” value (peptide 18)?
A: Its value is 219 LU.

Q: And the “LU (Light Units)” value (peptide 19)?
A: The value was 157 LU.

Q: And the “LU (Light Units)” value (peptide 16)?
A: The value was 80 LU.

Q: What about the “LU (Light Units)” value (peptide 38) of the same binder?
A: Its value is 1030 LU.

Q: What about the “LU (Light Units)” value (peptide 60) of the same binder?
A: Its value is 88 LU.

Q: What about the “LU (Light Units)” value (peptide 112) of the same binder?
A: The value was 100 LU.

Q: And the “LU (Light Units)” value (peptide 127)?
A: The value was 101 LU.

Q: What about the “LU (Light Units)” value (peptide 28) of the same binder?
A: Its value is 179 LU.

Q: And the “LU (Light Units)” value (peptide 42)?
A: Its value is 41 LU.

Q: And the “LU (Light Units)” value (peptide 37)?
A: Its value is 1120 LU.

Q: What about the “signal to noise ratio” value (peptide 37) of the same binder?
A: The value was roughly 4 ratio.

Q: What about the “LU (Light Units)” value (peptide 30) of the same binder?
A: The value was 184 LU.

Q: And the “LU (Light Units)” value (peptide 82)?
A: The value was 149 LU.

Q: And the “LU (Light Units)” value (peptide 54)?
A: Its value is 1210 LU.

Q: What about the “signal to noise ratio” value (peptide 54) of the same binder?
A: Its value is roughly 4 ratio.

Q: And the “LU (Light Units)” value (peptide 67)?
A: The value was 62 LU.

Q: And the “LU (Light Units)” value (peptide 91)?
A: Its value is 67 LU.

Q: And the “LU (Light Units)” value (peptide 77)?
A: Its value is 97 LU.

Q: And the “LU (Light Units)” value (peptide 129)?
A: The value was 139 LU.

Q: And the “LU (Light Units)” value (peptide 104)?
A: Its value is 91 LU.

Q: What about the “LU (Light Units)” value (peptide 12) of the same binder?
A: Its value is 2980 LU.

Q: What about the “LU (Light Units)” value (peptide 32) of the same binder?
A: The value was 319 LU.

Q: What about the “LU (Light Units)” value (peptide 125) of the same binder?
A: The value was 25 LU.

Q: And the “LU (Light Units)” value (peptide 41)?
A: Its value is 8 LU.

Q: And the “LU (Light Units)” value (peptide 9)?
A: Its value is 1100 LU.
